Reference: US20120003668A1, “HIGH RESOLUTION COMPLEX STRUCTURE AND ALLOSTERIC EFFECTS OF LOW MOLECULAR WEIGHT ACTIVATORS ON THE PROTEIN KINASE PDK1” (UNIVERSITAET DES SAARLANDES, priority 2008, published 2012)

Experiments:
PDK1 = PDK1 protein kinase activity test with T308tide substrate; assay type: biochemical, human; settings: T308tide as substrate
Protocol: In brief, PDK1 activity assay was performed at room temperature (22° C.) in a 20 μl mix containing 50 mM Tris pH 7.5, 0.05 mg/ml BSA, 0.1% β-mercaptoethanol, 10 mM MgCl2, 100 μM [γ^32P]ATP (5-50 cpm/pmol), 0.003% Brij, 150 ng PDK1, and T308tide (from 0.1 to 1 mM). […] Experiments were repeated at least twice.

PDK1[Phe224Trp] [1] = biological target: T1, PDK1[Phe224Trp] (Homo sapiens, UniProt O15530, F224W); assay: PDK1 protein kinase activity test with T308tide substrate, Phe224Trp mutant; assay type: biochemical; settings: PDK1 CD 50-359, T308tide as substrate
T1 construct: The catalytic domain (CD) of PDK1 50-359 and its mutants Phe224Trp and Thr226Trp were expressed in insect cells and purified; made in house; host or cells: insect cells
T1 sequence (O15530 50-359 F224W): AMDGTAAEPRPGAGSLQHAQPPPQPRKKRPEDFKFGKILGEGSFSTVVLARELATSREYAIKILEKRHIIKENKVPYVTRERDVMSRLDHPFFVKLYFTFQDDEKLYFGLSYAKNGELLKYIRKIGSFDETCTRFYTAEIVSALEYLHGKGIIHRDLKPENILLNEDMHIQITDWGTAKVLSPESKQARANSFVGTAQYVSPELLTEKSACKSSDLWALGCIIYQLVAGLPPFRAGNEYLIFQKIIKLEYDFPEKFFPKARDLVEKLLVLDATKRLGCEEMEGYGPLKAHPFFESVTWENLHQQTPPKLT
Protocol: Protein kinase activity tests: PDK1 activity tests were performed essentially as previously described (Biondi, R. M. et al., Embo. J. 20:4380-4390 (2001); Balendran, A. et al., J. Biol. Chem. 275:20806-20813 (2000); Biondi, R. M. et al., Embo. J. 19:979-988 (2000)) using T308tide as a substrate for PDK1. In brief, PDK1 activity assay was performed at room temperature (22° C.) in a 20 μl mix containing 50 mM Tris pH 7.5, 0.05 mg/ml BSA, 0.1% β-mercaptoethanol, 10 mM MgCl2, 100 μM [γ^32P]ATP (5-50 cpm/pmol), 0.003% Brij, 150 ng PDK1, and T308tide (from 0.1 to 1 mM). When appropriate, the PDK1 activity assay was performed in a 96 well format and 4 μl aliquots spotted with on p81 phosphocellulose papers (Whatmann) using ep motion 5070 (Eppendorf), washed in 0.01% phosphoric acid, dried, and then exposed and analysed using PhosphoImager technology (Typhoon, GE Healthcare). Activity measurements were performed in duplicates with less than 10% difference between pairs. Experiments were repeated at least twice. PDK1 specific activity at 22° C. was approximately 0.25 U/mg when the substrate concentration was 0.1 mM T308tide. […]

PDK1[Phe224Trp] [2] = biological target: T1, PDK1[Phe224Trp]; assay: Surface plasmon resonance (BiaCore) on biotin-P-HM-S6K chip, Phe224Trp mutant; assay type: binding; settings: protein pre-incubated with PIFtide
Protocol: Surface Plasmon resonance (BiaCore) and alpha-screen interaction and displacement assays: Binding of GST-PDK1 to a P-HM-polypeptide derived from S6K1 shown in FIG. 6 was analysed by surface plasmon resonance on a BiaCore 3000 system using a streptavidin-coated Sensor chip (SA) and biotin-P-HM-polypeptide, as previously described (Biondi, R. M. et al., Embo. J. 20:4380-4390 (2001). The interaction of His-PDK1 with biotin-PIFtide and the displacement by compounds shown in FIG. 3 was performed using the alpha-screen Ni-Chelate kit (Perkin Elmer) on an Envision 2104 multilabel system (Perkin Elmer).
BiaCore analysis was performed as described previously (Biondi, R. M. et al., Embo. J. 19:979-988 (2000)). […] Since both mutants were performed on the same construct of PDK1, their mass should be very similar and therefore should also produce 600RU when all biotin-(P)HM-S6K polypeptides on the same chip are bound to the mutant PDK1 proteins. Unfortunately, when mutant PDK1 Phe224Trp and PDK1 Thr226Trp were analysed, the injection of the mutants at concentrations higher than 1.3 μM prompted unspecific effects, therefore making difficult the evaluation. […]

PDK1 Tyr126 mutant = biological target: T2, PDK1 Tyr126 mutant (Homo sapiens, UniProt O15530, Y126A); assay: Biacore binding of PIFtide (data of Komander et al. 2005); settings: applicant's estimate from the published biacore data
T2 sequence (O15530 1-556 Y126A): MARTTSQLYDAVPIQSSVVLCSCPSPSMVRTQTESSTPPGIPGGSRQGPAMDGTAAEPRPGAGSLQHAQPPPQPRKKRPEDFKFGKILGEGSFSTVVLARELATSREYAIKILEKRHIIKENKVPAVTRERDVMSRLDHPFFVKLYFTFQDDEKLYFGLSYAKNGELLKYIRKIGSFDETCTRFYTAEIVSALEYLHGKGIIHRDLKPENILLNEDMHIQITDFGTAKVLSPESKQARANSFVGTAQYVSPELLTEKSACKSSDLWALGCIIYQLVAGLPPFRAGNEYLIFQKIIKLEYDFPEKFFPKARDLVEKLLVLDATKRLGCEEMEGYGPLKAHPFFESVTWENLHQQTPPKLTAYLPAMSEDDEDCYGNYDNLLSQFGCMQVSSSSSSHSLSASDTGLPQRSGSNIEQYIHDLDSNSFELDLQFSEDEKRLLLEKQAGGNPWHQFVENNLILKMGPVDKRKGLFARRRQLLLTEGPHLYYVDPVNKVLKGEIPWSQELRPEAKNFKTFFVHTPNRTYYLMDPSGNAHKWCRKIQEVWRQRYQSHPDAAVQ

[3] = biological target: T3, PDK1 50-359 [Y288G;Q292A] (Homo sapiens, UniProt O15530, Q292A/Y288G); assay: Amide 1H/2H exchange and mass spectrometry
T3 sequence (O15530 with tags, fused parts or gaps Y288G/Q292A): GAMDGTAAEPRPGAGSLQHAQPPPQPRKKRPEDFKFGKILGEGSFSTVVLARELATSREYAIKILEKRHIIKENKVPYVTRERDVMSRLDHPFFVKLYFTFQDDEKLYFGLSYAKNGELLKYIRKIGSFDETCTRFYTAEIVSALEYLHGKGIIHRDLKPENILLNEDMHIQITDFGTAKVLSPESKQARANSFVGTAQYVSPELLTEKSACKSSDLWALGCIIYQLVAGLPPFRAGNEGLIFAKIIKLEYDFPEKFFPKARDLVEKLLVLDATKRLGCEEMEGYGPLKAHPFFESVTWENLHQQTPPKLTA
Protocol: For local exchange analysis, the labeled proteins were digested with pepsin and the resulting polypeptides analyzed by tandem mass-spectrometry (LC-MS/MS) for their incorporation of deuterium atoms. The graphics represent the number of deuterium atoms incorporated into each polypeptide upon the stated incubation time in deuterated water. […] Over time, amide hydrogen atoms exchanged for deuteriums and the molecular weight of the protein increased. We repeated the ^1H/^2H exchange experiments at four different incubation times: 1, 5, 15 and 45 minutes. […] In the presence of peptide or small compounds, protein and ligand solution were pre-incubated on ice for 50 min before the mixture was diluted into labeling buffer. After the exchange reaction, samples were loaded on a pepsin column for one minute for digestion into peptides and samples quenched at each time point. They were then subjected to liquid chromatography for separation and analyzed by tandem mass-spectrometry (LC-MS/MS) for their incorporation of deuterium atoms. The entire plumbing system was immersed in an ice bath. 61 polypeptides were identified with overlapping regions, covering 80% of PDK1 sequence. As it is not possible to predict the cleavage sites of pepsin in the PDK1 sequence, it was necessary to identify the peptides generated by pepsin digestion for local-exchange analysis.

activation of PDK1 (PDK1): activated | displacement by PIFtide of PDK1[Phe224Trp] binding to the chip (PDK1[Phe224Trp] [2]): displaced | decreased affinity for PIFtide of the Tyr126 mutant (PDK1 Tyr126 mutant): over 30 fold | global exchange protection, 2H less incorporated/PDK1 molecule ([3]; after 45 minutes, PIFtide 0.625 mM, PS48 500 μM, PS08 250 μM): 20 ^2H | 2H less incorporated (protection), peptide 122-134 (α-C-helix) ([3]; first time point (1 min)): five
Sequence: REPRILSEEEQEMFRDFDYIADWC [PIFtide]
activation of PDK1[Phe224Trp] (PDK1[Phe224Trp] [1]): activated
